Measured values: patent US20190085075A1 (published 2019)

How the values were obtained:
[1] = target: T1, soluble cynomolgus monkey LAG-3 fusion protein (extracellular domain of cynomolgus monkey LAG-3 fused to … (cynomolgus monkey; murine); experiment: Biacore; cynomolgus LAG-3 ECD-murine IgG2a captured on Fab2 goat-anti-mouse Fc, antibody injected
T1 construct: extracellular domain; also called cynomolgus LAG-3-murine IgG2a fusion protein

[2] = target: T2, His-tagged soluble human LAG-3 (shLAG-3-His) (human, UniProt P18627 23-450); experiment: Biacore; antibody captured (capture surface not marked for this row), shLAG-3-His injected
T2 construct: also called soluble human LAG-3-His fusion protein; extracellular domain of human LAG-3 fused to a His tag; not shown: His tag
T2 sequence: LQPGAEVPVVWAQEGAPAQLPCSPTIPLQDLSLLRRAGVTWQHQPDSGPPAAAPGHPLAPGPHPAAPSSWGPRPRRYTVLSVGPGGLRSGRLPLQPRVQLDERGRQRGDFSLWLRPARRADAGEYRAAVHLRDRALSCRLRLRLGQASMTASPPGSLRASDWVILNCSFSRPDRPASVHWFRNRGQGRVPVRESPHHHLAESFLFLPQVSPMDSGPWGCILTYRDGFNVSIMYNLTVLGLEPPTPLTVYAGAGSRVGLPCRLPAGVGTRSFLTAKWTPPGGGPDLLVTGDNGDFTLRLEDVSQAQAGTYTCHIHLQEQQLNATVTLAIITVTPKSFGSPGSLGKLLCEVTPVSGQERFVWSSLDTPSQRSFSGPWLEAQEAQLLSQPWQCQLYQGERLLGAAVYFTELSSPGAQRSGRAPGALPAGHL

[3] = target: T3, soluble human LAG-3 fusion protein (extracellular domain of human LAG-3 fused to murine IgG2a) (human; murine, UniProt P18627 23-450); experiment: Biacore; human LAG-3 ECD-murine IgG2a captured on Fab2 goat-anti-mouse Fc, antibody injected
T3 construct: also called human LAG-3-murine IgG2a fusion protein; not shown: murine IgG2a
T3 sequence: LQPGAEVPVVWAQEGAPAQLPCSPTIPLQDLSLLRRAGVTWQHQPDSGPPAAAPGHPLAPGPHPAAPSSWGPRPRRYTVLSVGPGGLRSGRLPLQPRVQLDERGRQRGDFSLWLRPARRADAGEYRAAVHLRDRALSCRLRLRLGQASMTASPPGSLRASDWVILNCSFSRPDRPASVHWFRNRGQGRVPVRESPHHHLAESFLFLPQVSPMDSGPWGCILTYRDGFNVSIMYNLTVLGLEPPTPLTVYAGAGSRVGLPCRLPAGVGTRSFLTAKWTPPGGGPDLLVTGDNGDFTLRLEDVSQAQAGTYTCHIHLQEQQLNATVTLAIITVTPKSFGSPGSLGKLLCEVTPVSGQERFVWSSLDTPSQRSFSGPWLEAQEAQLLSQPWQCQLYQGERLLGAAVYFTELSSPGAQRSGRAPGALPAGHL

B1: LAG-3 mAb A (25F7, BMS-986016, Medarex/BMS) (antibody, V domains shown)
VH: QVQLQQWGAGLLKPSETLSLTCAVYGGSFSDYYWNWIRQPPGKGLEWIGEINHNGNTNSNPSLKSRVTLSLDTSKNQFSLKLRSVTAADTAVYYCAFGYSDYEYNWFDPWGQGTLVTVSS
VL: EIVLTQSPATLSLSPGERATLSCRASQSISSYLAWYQQKPGQAPRLLIYDASNRATGIPARFSGSGSGTDFTLTISSLEPEDFAVYYCQQRSNWPLTFGQGTNLEIK
notes: also called LAG-2 mAb A
B1 was tested, and the Kd [1] was 458000 pM, the Kd [2] was 600 pM and the Kd [3] was 160 pM.
